Data taken from PMC5900715 (Genes & Development, 2018).
Ends that are not written are not given here.

Biological target: MDM2 NTD polypeptide (residues 10–139) (UniProt Q00987 10-139)
Test: fluorescence polarisation

| Binder | binding result |
| --- | --- |
| fluorescein-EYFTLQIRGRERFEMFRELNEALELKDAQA [wild-type p53 OD peptide (residues 326–355)] | binds |
| fluorescein-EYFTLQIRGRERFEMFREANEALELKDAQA (also: dimeric) [dimeric mutant p53 OD peptide (L344A, residues 326–355)] | binds |
